Our source for the interaction score values is publication PMC10397247.

Holding throughout (assay): two-hybrid library CCNG1;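 note: natural log of median RNA to DNA barcode read ratio; higher means stronger binding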
Assay [1] has as its target T1, 4H363-bA.
T1 chain: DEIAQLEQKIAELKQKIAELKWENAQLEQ

The target of assay [2] is T2, 4H3961-bA.
T2 chain: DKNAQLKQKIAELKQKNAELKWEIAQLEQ

The target in assay [3] is T3, 4H3907-bA.
T3 chain: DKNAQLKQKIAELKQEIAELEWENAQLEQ

Assay [4] has as its target T4, 4H470-bA.
T4 chain: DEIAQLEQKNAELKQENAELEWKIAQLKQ

Assay [5] has as its target T5, 4H3497-bA.
T5 chain: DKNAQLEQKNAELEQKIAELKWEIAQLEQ

Assay [6] deals with T6, 4H3638-bA.
T6 chain: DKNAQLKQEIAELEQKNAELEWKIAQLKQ

Assay [7] addresses T7, 4H570-bA.
T7 chain: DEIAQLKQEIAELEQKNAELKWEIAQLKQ

The target in assay [8] is T8, 4H626-bA.
T8 chain: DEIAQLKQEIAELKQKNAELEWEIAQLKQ

Assay [9] deals with T9, 4H3129-bA.
T9 chain: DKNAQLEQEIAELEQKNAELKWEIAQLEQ

Assay [10] concerns the target T10, 4H3172-bA.
T10 chain: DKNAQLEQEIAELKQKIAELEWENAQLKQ

For assay [11], the target named is T11, 4H3628-bA.
T11 chain: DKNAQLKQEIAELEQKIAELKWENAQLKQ

The target in assay [12] is T12, 4H850-bA.
T12 chain: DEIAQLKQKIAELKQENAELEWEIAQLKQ

The target in assay [13] is T13, 4H1985-bA.
T13 chain: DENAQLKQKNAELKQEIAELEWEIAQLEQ

Assay [14] deals with T14, 4H3858-bA.
T14 chain: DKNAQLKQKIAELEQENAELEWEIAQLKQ

The target of assay [15] is T15, 4H591-bA.
T15 chain: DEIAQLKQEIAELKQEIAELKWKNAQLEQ

For assay [16], the target named is T16, 4H3817-bA.
T16 chain: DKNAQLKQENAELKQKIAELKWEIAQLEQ

For assay [17], the target named is T17, 4H1899-bA.
T17 chain: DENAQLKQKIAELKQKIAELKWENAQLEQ

Assay [18] concerns the target T18, 4H3414-bA.
T18 chain: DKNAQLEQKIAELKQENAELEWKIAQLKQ

Assay [19] has as its target T19, 4H3277-bA.
T19 chain: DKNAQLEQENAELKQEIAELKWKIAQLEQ

The target in assay [20] is T20, 4H906-bA.
T20 chain: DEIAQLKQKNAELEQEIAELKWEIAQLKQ

For assay [21], the target named is T21, 4H3631-bA.
T21 chain: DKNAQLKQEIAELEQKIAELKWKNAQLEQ

For assay [22], the target named is T22, 4H3855-bA.
T22 chain: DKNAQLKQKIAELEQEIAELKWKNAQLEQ

The target of assay [23] is T23, 4H3613-bA.
T23 chain: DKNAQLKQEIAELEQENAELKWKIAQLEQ

Assay [24] addresses T24, 4H1804-bA.
T24 chain: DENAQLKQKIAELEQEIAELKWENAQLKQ

For assay [25], the target named is T25, 4H3162-bA.
T25 chain: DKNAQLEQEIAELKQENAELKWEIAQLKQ

Assay [26] deals with T26, 4H3175-bA.
T26 chain: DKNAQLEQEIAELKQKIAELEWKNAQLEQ

In assay [27] the target is T27, 4H3298-bA.
T27 chain: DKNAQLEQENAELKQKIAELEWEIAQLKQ

The target of assay [28] is T28, 4H1710-bA.
T28 chain: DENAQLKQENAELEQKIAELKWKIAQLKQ

For assay [29], the target named is T29, 4H619-bA.
T29 chain: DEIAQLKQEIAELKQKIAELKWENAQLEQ

For assay [30], the target named is T30, 4H584-bA.
T30 chain: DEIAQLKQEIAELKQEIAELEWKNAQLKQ

Assay [31] concerns the target T31, 4H3926-bA.
T31 chain: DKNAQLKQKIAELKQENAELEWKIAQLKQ

For assay [32], the target named is T32, 4H3462-bA.
T32 chain: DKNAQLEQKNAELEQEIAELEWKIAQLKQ

Assay [33] has as its target T33, O14-bA.
T33 chain: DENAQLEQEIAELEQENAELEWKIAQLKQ

The target of assay [34] is T34, 4H3974-bA.
T34 chain: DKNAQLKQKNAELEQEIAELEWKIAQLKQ

On to DEIAQLEQKIAELKQKIAELKWENAQLEQ [4H363-bA], for which the interaction score in assay [1] was 1.08; in assay [2], 0.154; in assay [3], 1.32; in assay [4] it was -2.31.
In the case of DENAQLKQENAELEQKIAELKWKIAQLKQ [4H1710-bA], the interaction score in [5] was 1.01; in assay [6], 0.729; in assay [7], -1.24; in assay [8], -0.621; in assay [9] it was 0.367; in assay [10], -0.97. Moreover, the interaction score is 0.848 in assay [11]; 0.0118 in [12]; 2.11 in assay [13]; 0.318 in [14]; -1.11 in [15]; 1.53 in assay [16]. The interaction score in assay [17] is -0.115; in assay [18], -0.541; in [19], -0.282; in assay [20], 0.904; in assay [21] it was 1.48; in assay [22] it was 0.515. The interaction score was 0.262 in [23]; -0.669 in [24]; -0.713 in assay [25]; -0.421 in [26]; 0.819 in assay [27]; 0.102 in assay [28]. Besides, the interaction score in assay [29] is 0.519; in assay [30] it was -0.0679; in assay [31], 0.352; in assay [32] it was 1.04; in assay [33], -1.06; in assay [34] it was 1.34.
